The target of test [1] is T1, HLA-G protein antigen (human, UniProt P17693 25-308).
T1 construct: also called HLA-G antigen
Description: SPR according to Example 1-4-1; HLA-G antigen.

In test [2] the target is T2, HLA-G naturally expressed on JEG-3 cells (human, UniProt P17693 25-338).
T2 construct: whole, on cells; also called HLA-G expressing cells; HLA-G receptor in the cell
Nature of the test: flow cytometry on JEG-3 cells that naturally express HLA-G; detection anti-IgM-PE or anti-IgG Fc-FITC; MFI.

Test [3] has as its target T3, HLA-G-6× his tag (IMBiologics) (human, UniProt P17693 25-308).
T3 construct: also called recombinant HLA-G protein
Description: blocking ELISA: ILT-2 antigen coated at 150 ng/well, HLA-G-6× his added with the dilution, detection HRP anti-6× his; blocked ligand ILT-2. (An ELISA detects its analyte on a solid surface through an enzyme-linked reagent.)

For test [4], the target named is T3, HLA-G-6× his tag (IMBiologics). The description is as above. The source holds these as a separate data set.
The target in test [5] is T4, Fcα/µ receptor (R&D systems) (UniProt Q8WWV6 17-450).
T4 sequence: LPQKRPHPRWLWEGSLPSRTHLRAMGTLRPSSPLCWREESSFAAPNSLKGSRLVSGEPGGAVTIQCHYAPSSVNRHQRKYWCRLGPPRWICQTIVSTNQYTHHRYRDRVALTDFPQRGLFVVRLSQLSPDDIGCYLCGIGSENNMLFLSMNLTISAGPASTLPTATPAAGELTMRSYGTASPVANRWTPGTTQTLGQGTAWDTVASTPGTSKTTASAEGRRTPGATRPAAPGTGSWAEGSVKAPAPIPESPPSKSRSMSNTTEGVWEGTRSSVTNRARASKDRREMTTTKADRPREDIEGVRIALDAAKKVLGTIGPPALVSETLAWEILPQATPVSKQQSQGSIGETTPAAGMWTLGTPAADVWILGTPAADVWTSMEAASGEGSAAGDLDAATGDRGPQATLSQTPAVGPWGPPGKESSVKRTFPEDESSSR
Description: ELISA, Fcα/µ receptor coated at 100 ng/well; detection HRP anti-IgM (F5µ).

Test [6] has as its target T5, pIgR (polymeric Ig receptor; R&D systems) (UniProt P01833 19-638).
T5 construct: also called pIg receptor
Description: ELISA, pIgR coated at 100 ng/well; detection HRP anti-IgM (F5µ).

Test [7] addresses T1, HLA-G protein antigen. Description: ELISA according to Example 1-4-1.
Test [8] has as its target T1, HLA-G protein antigen. Description: ELISA on HLA-G antigen, according to Example 1-4-1.

Like-named read-outs stand apart in the source and are kept apart here. Bounds are passed on as bounds.

T5 sequence (P01833 19-638 limits assumed): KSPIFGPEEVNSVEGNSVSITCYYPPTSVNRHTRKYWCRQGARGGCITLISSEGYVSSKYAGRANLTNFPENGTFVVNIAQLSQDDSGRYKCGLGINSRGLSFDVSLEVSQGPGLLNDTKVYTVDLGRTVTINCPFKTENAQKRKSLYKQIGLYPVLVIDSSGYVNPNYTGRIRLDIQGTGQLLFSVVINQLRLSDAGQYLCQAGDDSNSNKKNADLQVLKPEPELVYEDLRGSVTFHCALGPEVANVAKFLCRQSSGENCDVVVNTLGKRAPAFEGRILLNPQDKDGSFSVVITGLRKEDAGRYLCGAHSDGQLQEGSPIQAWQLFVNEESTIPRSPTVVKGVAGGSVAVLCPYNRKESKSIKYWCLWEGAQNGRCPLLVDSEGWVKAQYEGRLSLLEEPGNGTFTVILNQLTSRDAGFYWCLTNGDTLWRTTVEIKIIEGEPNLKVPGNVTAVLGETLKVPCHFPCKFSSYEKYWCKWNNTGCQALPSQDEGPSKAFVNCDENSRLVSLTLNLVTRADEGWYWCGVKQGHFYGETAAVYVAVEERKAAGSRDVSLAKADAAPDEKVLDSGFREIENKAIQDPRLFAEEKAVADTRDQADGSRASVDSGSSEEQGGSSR

B1: (A2014)2-(IgG Fc region) (antibody, V domains shown)
VH: QVQLQQSGPGLLKPSQTLSLTCAISGDSVSSNRAAWNWIRQSPSRGLEWLGRTYYRSKWYNDYAVSVQGRITLIPDTSKNQFSLRLNSVTPEDTAVYYCASVRAVAPFDYWGQGVLVTVSS
VL: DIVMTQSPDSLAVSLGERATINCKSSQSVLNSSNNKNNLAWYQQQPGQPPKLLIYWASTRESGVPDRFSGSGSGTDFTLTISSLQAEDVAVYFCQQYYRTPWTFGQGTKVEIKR
notes: also called (A2014)-(IgG Fc); (A2014)-(IgGFc) control protein
Take B1: in the test with HLA-G protein antigen [1], the affinity, expressed as Kd, was 25.9 pM; the koff is 0.000305 s⁻¹; the kon came out at 1.18e+07 M⁻¹ s⁻¹. Moreover, the “EC50 (read off the curve)” value in test [2] was approximately 700 pM. Further, the “IC50 (read off the curve)” value in test [3] was approximately 30000 pM. The “IC50 (read off the curve)” value in test [4] was approximately 8000 pM.

B2: [(CMVpHLA)2-(linker)2-(IgG Fc region)-(IgM Fc region)]5-(J chain D105K) (Fc fusion)
chain (part 1 of 2): […]
chain (part 2 of 2): QDTAIRVFAIPPSFASIFLTKSTKLTCLVTDLTTYDSVTISWTRQNGEAVKTHTNISESHPNATFSAVGEASICEDDWNSGERFTCTVTHTDLPSPLKQTISRPKGVALHRPDVYLLPPAREQLNLRESATITCLVTGFSPADVFVQWMQRGQPLSPEKYVTSAPMPEPQAPGRYFAHSILTVSEEEWNTGETYTCVVAHEALPNRVTERTVDKSTGKPTLYNVSLVMSDTAGTCY
chain: […]
notes: not shown: IgG Fc
In the case of B2, the binding result in test [5] was “no binding”.

B3: [(CMVpHLA)2-(linker)2-(IgG Fc region)-(IgM Fc region)]5-(J chain R106V) (Fc fusion)
chain (part 1 of 2): […]
chain (part 2 of 2): B2 chain (part 2 of 2)
chain: […]
notes: not shown: IgG Fc
Take B3: in test [6], the binding result is reported as “no binding”.

B4: [(CMVpHLA)2-(linker)2-(IgG Fc region)-(IgM Fc region)]5-(J chain R106A) (Fc fusion)
chain (part 1 of 2): […]
chain (part 2 of 2): B2 chain (part 2 of 2)
chain: […]
notes: not shown: IgG Fc
In the case of B4, the binding result in test [5] is listed as “no binding”.

B5: [(CMVpHLA)2-(linker)2-(IgG Fc region)-(IgM Fc region)]5-(J chain N107F) (Fc fusion)
chain (part 1 of 2): […]
chain (part 2 of 2): B2 chain (part 2 of 2)
chain: […]
notes: not shown: IgG Fc
For B5, the binding result in test [5] is “no binding”.

B6: [(CMVpHLA)2-(linker)2-(IgG Fc region)-(IgM Fc region)]5-(J chain R106Q) (Fc fusion)
chain (part 1 of 2): […]
chain (part 2 of 2): B2 chain (part 2 of 2)
chain: […]
notes: not shown: IgG Fc
As for B6, the binding result in test [5] is “no binding”.

B7: [(A2014)2-(IgD hinge region)2-(IgM Fc region)]6-(J chain)0 (Fc fusion)
heavy: QVQLQQSGPGLLKPSQTLSLTCAISGDSVSSNRAAWNWIRQSPSRGLEWLGRTYYRSKWYNDYAVSVQGRITLIPDTSKNQFSLRLNSVTPEDTAVYYCASVRAVAPFDYWGQGVLVTVSSASTKGPSVFPLAPSSKSTSGGTAALGCLVKDYFPEPVTVSWNSGALTSGVHTFPAVLQSSGLYSLSSVVTVPSSSLGTQTYICNVNHKPSNTKVDKKVEPKSCRNTGRGGEEKKKEKEKEEQEERETKTPECPSHTQPLGVIAELPPKVSVFVPPRDGFFGNPRKSKLICQATGFSPRQIQVSWLREGKQVGSGVTTDQVQAEAKESGPTTYKVTSTLTIKESDWLSQSMFTCRVDHRGLTFQQNASSMCVPDQDTAIRVFAIPPSFASIFLTKSTKLTCLVTDLTTYDSVTISWTRQNGEAVKTHTNISESHPNATFSAVGEASICEDDWNSGERFTCTVTHTDLPSPLKQTISRPKGVALHRPDVYLLPPAREQLNLRESATITCLVTGFSPADVFVQWMQRGQPLSPEKYVTSAPMPEPQAPGRYFAHSILTVSEEEWNTGETYTCVVAHEALPNRVTERTVDKSTGKPTLYNVSLVMSDTAGTCY
light: not shown
On to B7, for which, in the test with HLA-G protein antigen [7], the “fold improvement of EC50 against the (A2014)-(IgGFc) control protein” value is not below 1000 fold. In the test with HLA-G protein antigen [1], the Kd stood at 2.32 pM, the koff came out at 3.51e-05 s⁻¹ and the kon amounted to 1.48e+07 M⁻¹ s⁻¹. Further, the “EC50 (read off the curve)” value with HLA-G protein antigen [8] was approximately 40 pM.

Usually Kd stands for a measure of binding affinity in units of concentration. A low value points to tighter binding. A word on the koff: it is a measure of how fast the partners let go of each other. The low end stands for slow dissociation, the high end for fast dissociation. The term kon denotes the rate constant with which the complex forms. Read a low kon as slow association. In general, EC50 (read off the curve) refers to the concentration that produces a half-maximal response. Read a low EC50 (read off the curve) as an effect from little substance.

The record behind these values is patent US20250257137A1 (IMBIOLOGICS, published 2025).
